# Experimental data: the DeepSol protein solubility set
# Test: soluble on expression in E. coli; label from the status in PepcDB or PDB records
row,Sequence,soluble on expression in E. coli
1,GMLESTKQFLKKYNINDRVLKLYETAMNDIQNQFKILDDIREFNQLKVLNAFQEERISEAHFTNSSGYGYGDIGRDSLDAVYARVFNTESALVRPHFVNGTHALGAALFGNLRPGNTMLSVCGEPYDTLHDVIGITENSNMGSLKEFGINYKQVDLKEDGKPNLEEIEKVLKEDESITLVHIQRSTGYGWRRALLIEDIKSIVDCVKNIRKDIICFVDNCYGEFMDTKEPTDVGADLIAGSLIKNIGGGIAPTGGYLAGTKDCIEKTSYRLTVPGIGGECGSTFGVVRSMYQGLFLAPHISMEALKGAILCSRIMELAGFEVMPKYDEKRSDIIQSIKFNDKDKLIEFCKGIQTGSPIDSFVSCEPWDMPGYTDQVIMAAGAFIQGSSIELSADAPIREPYIAYLQGGLTFDHAKIGILIALSRIVK,soluble
2,MPKKEKMAKTPLSDEKQLLLFQQKLLAEEEMAKKKERLLSQFLKDKLAKEEHNSALNLNKINTQWRTVLREVKTRELHKDIEILSQTFERVVDCKDNVIKSLAKDLSEAEEQYAHALRSHLHNVDQLLALQRHRLSLLEESYNMELEALTKEFETERKTIIDQHEKEIHYLQDIFMAMEQNYIDSEYESKLEFQSMWNDLKNMNLEEKHFLRLHLENRVEDLWRKFQDVLKNYTDATEDRKAAFETLQVKDEKSSKEIEVQMKKIQKLQDAITISKGKIMIHSRESEDENRYIRNDKELVLVQLRKLKAQRTQARAASQKNLVRLTLESNATLKALRKIVDKGEKILKLAEICRKFETEEEKVLPFYSSVLTPKEQEGIQKNNLEELTEELTKVMVDYIGMENFWKRYNKVKLEQLSLQHRRAQLLDINGKLREMLKQYLDGISVSDEVLSQLNPLFIVNYQSNLLQPLSIRIAHPGDKQHPTT,soluble
3,MGELANCPKCNALFLKTKLQTVCQACIKEEEKSFETVYKFLRKQENRQSTLSRITEETGVEEELILKFIRQKRIQITHLPNLAYPCERCGTSIREGKFCKACQSDIKDQMDHLNHEDALKIEKENSKKDTYYAYNTKNSLEHHHHHH,soluble
4,MSLSLREVSQLLCQLKVLDQKITKVFEEQVGLSLTRYELLMILKERQPCLQTEIQEHLKIDSGAVTRHLKILEEKQYVTRQRNPENNREVLVHLTEKAQQELQQCTAKQQTVTEIIPSTFTKDDCRQLKELLTKLDQSITTKEV,not soluble
5,MAHHHHHHMYEKTHVTTYPVMGCQISVGTTASRRSKGLNATRSGVDGALTSGTVDGRDPKSTGADNSVSLAYAVPAVKPVTYNDYRGFQVTMVNGTLAKINNICRWLDTALDKREKNGGWCMDVLAESVSSGKMETSFYCESIVQASHHVTHYCGQERANGVEYFAEVHSQQVFEKSAVSRTFDCPSAKFVYNSRFEEIPRQSDITTTQLNKETSDSGIPNGREAMIRYSPTSSEDGGRLNE,not soluble
6,MTNESEVGVKKAAELLRQGATMLEEACPICKMPLFKLKNGDVVCPVHGKVYIVKSDDEEKIVKRNLQLDEIESILIDGLYLSAKKMKEDPLDSERIIQIIRYLDALERLRKIKINSSE,not soluble
7,TKDWNLDLTLNMSHNKNKVTKLVEEGRAQSAMDVVVQGSYADQVLAVGYPMGAFHGYEYAGIIQDQARIDELNAYAKSKGQSYYDGNSLKPGHLEIKDLNGDGIINYNDRVIIGNPDPDLFGGLTANLSYKQFSLFANFGYQIGGLKIYNKTLQNLPGQLTGLIDYGLNDRWSDTNKNAKYPALYIGDGVPRLTDHELFNASFFRLQEVRLTYNLPLNKVIKGQLFVSATNLFTLTSYPGTDPATVNSNSNYGGNYETSTYPGFRSFSAGLKINL,not soluble
8,MIAIVAGNSAGVSRVANQPLEHEPSYWAATAEIEQPSPALEHDLDVDVAIIGAGYTGLSTAYHLKKDHGITATVVEANRIGWGCSGRNGGFAMIGVGKDTYNAWISKVGLEQARKTFEFGRDAVRTLRTVLQENNINAASGNEGFLLTAHRRARISELIETQRQLKHYFGFDTEYLDAHDVRTHYLSGTQIFGALHYPEHFPIHPMRYAQGLGRRVRQLGVPIYENSPVNTWRRAGRLHELLTPRGVVRAKKVVIATNGYTPDGLHPIVRGRLMNVLSNIVVTAPLSEGQLAATRWQTHKMVVDTRNLRSYFRLLEDNRIMFGARGGISDTAASRATMKAWLLTQLAKQFPGLGAIGADYFWQGWVAIPRDKGPHIHVADNGSVAYWLGCTGTGVAMSTHAGKLLADSLATERRPDVPALVGAPLPRYEIPALRKLYQRAAYSYFYLKDEFLLEHHHHHH,not soluble
9,MKDIIIASFYKFIPLNDFESLREPILTKMHEIGIKGTIILAHEGVNGGFAGNREQMNVFYDYLRSDSRFADLHFKETYDNKNPFDKAKVKLRKEIVTMGVQKVDPSYNAGTYLSPEEWHQFIQDPNVILLDTRNDYEYELGTFKNAINPDIENFREFPDYVQRNLIDKKDKKIAMFCTGGIRCEKTTAYMKELGFEHVYQLHDGILNYLESIPESESLWEGKCFVFDDRVAVDQKLDRVYPQLPQDYKYEREQK,not soluble
10,MGHHHHHHSHMADDIDIEAMLEAPYKKDENKLSSANGHEERSKKRKKSKSRSRSHERKRSKSKERKRSRDRERKKSKSRERKRSRSKERRRSRSRSRDRRFRGRYRSPYSGPKFNSAIRGKIGLPHSIKLSRRRSRSKSPFRKDKSPVREPIDNLTPEERDARTVFCMQLAARIRPRDLEEFFSTVGKVRDVRMISDRNSRRSKGIAYVEFVDVSSVPLAIGLTGQRVLGVPIIVQASQAEKNRAAAMANNLQKGSAGPMRLYVGSLHFNITEDMLRGIFEPFGRIESIQLMMDSETGRSKGYGFITFSDSECAKKALEQLNGFELAGRPMKVGHVTERTDASSASSFLDSDELERTGIDLGTTGRLQLMARLAEGTGLQIPPAAQQALQMSGSLAFGAVAEFSFVIDLQTRLSQQTEASALAAAASVQPLATQCFQLSNMFNPQTEEEVGWDTEIKDDVIEECNKHGGVIHIYVDKNSAQGNVYVKCPSIAAAIAAVNALHGRWFAGKMITAAYVPLPTYHNLFPDSMTATQLLVPSRR,soluble
11,ETMVGSFRDTTDKWLSQRLAADIYIYPTNNSAGRMSAWLQDQPEVESVWWRWEKDVPTEHGALQVVSTGPSEGELDSLTVKLGVPNYWYQLHQTKSLMVSESMALKLDIRPGDYIDLQAPLGEGWQVVGVYYDYGNPYNQVMMSHRN,not soluble
12,MNALTPLSARLERSDGHALVTLARSRGAVRLRDLAQRGSAKAFLPRVEGDVPEVVFLNTSGGLTGGDRLSYRLEVGEGCRATATTQTAERAYAAGAGAARVEVLHEVGRDGWLDWLPQETILFEGAALERETQISLAPGAGCLMVESVVLGRAAMGETLSRLAFRDRRSILRGGKPVVVEPLALDDRALAAAGGAAMLGGARALATLAMVGPGAEDALGPARAALGEAGVEAAASAFDGKLVLRLLAADGWPLRRQVARLLTVLRGRALPRVWQVLEHHHHHH,not soluble
13,MALAEADDGAVVFGEEQEALVLKSWAVMKKDAANLGLRFFLKVFEIAPSAKQMFSFLRDSDVPLEKNPKLKTHAMSVFVMTCEAAAQLRKAGKVTVRETTLKRLGATHLRYGVADGHFEVTGFALLETIKEALPADMWSLEMKKAWAEAYSQLVAAIKREMKPDA,soluble
14,MLSTNNITMQFGSKPLFENISVKFGGGNRYGLIGANGCGKSTFMKILGGDLVPSGGNVFLDPNERLGKLRQDQFAFENNTVLDTVIMGHGELWEVKEERDRIYAMAEMSEEDGYKVADLEVAYGEMDGYSAEARAGELLLGVGIPVEQHYGLMSEIAPGWKLRVLLAQALFSDPEILLLDEPTNNLDIDTIRWLEQVLNERNSTMIIISHDRHFLNMVCTHMADLDYGELRVYPGNYDEYMTAATQARERLLSDNAKKKAQISELQSFVSRFSANASKSKQATSRARQIDKIQLDEVKASSRQNPFIRFDQDRKLFRNALEVEMLTKGFDNGPLFKNLTLRLEVGEKVAILGPNGIGKSTLLKTLLGEYESDAGTVKWSENSKIGYYAQDHASDFDIDLTVFDWMSQWKQEKDDEQAVRSVLGRLLFSQDDIKKKVSVLSGGEKGRMLFGKLMMQRPNILVMDEPTNHLDMESIESLNMALEMYEGTLIFVSHDREFVSSLATRVIEMTPNKLIDFTGNYEDYLSSQGIHS,not soluble
15,MRFFLSPPHMGGNELKYIEEVFKSNYIAPLGEFVNRFEQSVKDYSKSENALALNSATAALHLALRVAGVKQDDIVLASSFTFIASVAPICYLKAKPVFIDCDETYNIDVDLLKLAIKECEKKPKALILTHLYGNAAKMDEIVEICKENDIVLIEDAAEALGSFYKNKALGTFGEFGVYSYNGNKIITTSGGGMLIGKNKEKIEKARFYSTQARENCLHYEHLDYGYNYRLSNVLGAIGVAQMEVLEQRVLKKREIYEWYKEFLGEYFSFLDELENSRSNRWLSTALINFDKNELNACQKDINISQKNITLHPKISKLIEDLKNKQIETRPLWKAMHTQEVFKGAKAYLNGNSELFFQKGICLPSGTAMSKDDVYEISKLILKSIKAGSHHHHHH,soluble
16,MLTTTTNDILDQLRPLTVTKRGGAQTKFHPYKIDFVLRRLLATDDEVRVVKQALVAQYQDADNIDTRELRSTMMQILNAQGLTAAAKAYQDYFEAEQQRFAAATN,not soluble
17,NWVTPDGAPGPTGKGGFAAASGRYHLYVSYACPWAHRTLIFREIKGLSAHIPVSAVHPDMLDQGWTFAPEPQGRTGDRLYGLNYAHQVYTRADPTYSGRVTVPILWDSERQTVVSNESSEIIRMFNSAFDGLTGNRDDFWPEALREAIEPVNARIYDTVNN,not soluble
18,MSLSIYSVGRWICRSYFRLFFKVEVIGASRIPDEGGLLLCCNHFSNYDPPFVGSFFPRKVRFMAKEELFRFKPLQSLMMAVGAFPVRRGAGDKQALKVGLKLLKEGETLGIFPEGTRSKDGQIGKGLSGVGFFALRSDATVVPCAIVGKYRFFRKVRFVIGEPVPMEELKERKASAEEATEVIMKAIRKLHEQNQMSEGHHHHHH,soluble
19,MSLNKIIHHYEVFKDFYGMEEPIEQIVGFLKHAAQGLEETKQVLYLLGPVGGGKSSIAEKLKDLMERIPFYAIKGSPVFESPLSLFNPLEDGELLRERFGIPTRYLRYLMSPWAVKRLQEYNGDISKFRVIKVKPSRLKQIAIAKTEPGDENNQDISSLVGKVDIRKLEEFSQDDPDAYSYSGGLCRANRGLLEFVEMFKAPIKVLHPLLTATQEGNYNATEGLSAIPFEGIILAHSNESEWQSFRNNKNNEAFIDRINIVKVPYCLRVSEEIKIYQKLIHNSSLANAPCAPGTLDMLAQFSVLTRLKEPQNSSIYSKMRVYNGESLKDTDPKAKSYQEYRDFAGVDEGMSGISTRFAFKILSKVFNFDHTEVAANPVHLMYVLERQIEQEQFPQELHETYLNFIKEYLATKYVDFIGKEIQTAYLESYSEYGQNIFDRYITYADFWIQDQDYRDPDTGEIFDRALLNLELEKIEKPAGISNPKDFRNEVVNFVLRARANNRGKNPVWNSYEKLKSVIEKKMFTNTEDLLPVISFNAKASEEDKKKHEEFISRMVEKGYTRKQVRLLCEWYLRVRKSQEGHHHHHH,not soluble
20,NRLKDSKAKSRVVILLTDGSNNMGDITPRMAADIARTFGIRVYTVGVGTRGEAPFPIQTEFGVRIQNVPVDIDEPTLDGIAEVSGGKYFRAVDNETLNEIYKEIDKLEKTRLMTKSFKAYEEK,not soluble
21,MGSDKIHHHHHHMSYDLPRLTPDKDFKVPSACGVSGIMNTSGKRFSGSVIVESMALMRERGNGLGAGYAAYGIYPELKDLYCFHMLYDSDLDKKNAEEYIKDHYEIIESEPIPTRKNPHIKEVHILWRYFLKPKFIPEDMSEEDFVVSTVMFINEKINGAFVMSSGKNMGVFKGVGFPEDIADFYRIDEYKGYIWTAHNRFPTNTVGWWGGAHPFGILDWTVVHNGEISSYGINRRFLEAYGYKCTLMTDTEVVAYLVDLFMRRFGYSPQLTAKILAAPLWKDIDLMPEEERKLYTALRMNYGGALLNGPFAIIVANNNMMMGLNDRIKLRPLVAATKDDFLYIASEESAIRVVCPEPDEVWAPKAGDPVVGVLKSARKTQVVLEGENG,not soluble
